Among the data in article PMC13270198 are Kd and Ki values, retold here.

Where “and” joins values, the source holds several entries; their conditions need not be identical. Identical values can stand only once.

Series [1] concerns Cas12a2 (SuCas12a2) (Sulfuricurvum sp. PC08-66). In words: fluorescence anisotropy. Conditions: phosphorothioate (non-hydrolyzable); Fluorescence anisotropy: 25 mM HEPES pH 7.2, 150 mM KCl, 2 mM MgCl2, 5 ug/ml BSA, 10 nM probe, read at 30 min; temperature not stated. For orientation: Fluorescence polarisation rises when a labelled molecule tumbles more slowly, as on binding a larger partner.

For series [2] the test system is unchanged. Kind of series: competition (cleavage inhibition). Conditions: phosphorothioate (non-cleavable); Fluorescence anisotropy: 25 mM HEPES pH 7.2, 150 mM KCl, 2 mM MgCl2, 5 ug/ml BSA, 10 nM probe, read at 30 min; temperature not stated.

As for PT collateral ssRNA, the Kd in series [1] is 6.7 nM and 37 nM and 19 nM.
As for PT-ssDNA inhibitor, the Ki in series [2] was 120 nM and 90 nM and 50 nM.
As for PT-ssRNA inhibitor, in series [2], the Ki is 610 nM and 110 nM.

The term Kd denotes the equilibrium constant for the complex coming apart. For orientation: Ki means the dissociation constant of the complex between target and ligand, obtained from inhibition or displacement.
